From paper PMC7466809

Tested on: GST-EZH2
Experiment: Alpha assay (saturation)
Details: RNA-protein binding buffer: 50 mM Tris-HCl pH 7.9, 10 mM beta-ME, 10% glycerol, 5 mM MgCl2, 100 mM KCl, 0.1% NP-40; EMSA 1 h at RT, 1 ug His-EZH2, 0.035 pmol …

Substance: LINC00301 (Alpha assay)
- K half: 228 nM
